For assay [1], the target named is recombinant neuraminidase (rNA) of B/Malaysia/2506/04 (influenza B virus B/Malaysia/2506/04).
The target of assay [2] is recombinant neuraminidase (rNA) of B/Wisconsin/1/10 (influenza B virus B/Wisconsin/1/10).

1 molecule from patent publication US20220153873A1 (ICAHN SCHOOL OF MEDICINE AT MOUNT SINAI, published 2022) can be followed below.

“And” between values parts separate entries of the source, which are not always exact repeats. Identical values can stand only once.

B1: HC0LC0 (antibody, V domains shown)
VH: QVHLQQSGPEVARPGASVKLSCKASGYTFTDYYLNWVKQRPRQGLEWIGQIHPGSTNTYYNEKFKGKATLTADKSSSTAYMQLSSLTSEDSAVYFCARSLGDGYYVYAMDYWGQGTAVTVSS
VL: DIVMTQSQKFMSTSVGDRVSVTCKASQNVVTNVVWYQQKPGQSPKPLIYSASYRYSGVPDRFTGSGSGTDFTLTISNVQSEDLAEYCCQQYHSYPFTFGSGTKLEVKR
Take B1: the % Dissociation in assay [1] is 0.52% and 0%. In assay [2], the Early Stability X=902 was 0.32 nm and 0.3 nm and 0.33 nm.
